Tests used:
[1] = target: T1, Recombinant human low affinity IL-12 receptor protein (clone No. 5) expressed in COS cells (human); test: equilibrium binding of labeled IL-12 to COS cells electroporated with clone number 5, Scatchard, single site (FIG. 19B)
Method: (§1) Binding assays with labeled IL-12 or labeled 2-4E6 antibody were run as described hereinabove under anti human IL-12 receptor antibody. The binding data were analyzed and Kd values were calculated according to Scatchard, using the LIGAND program discussed hereinabove under anti human IL-12 receptor antibody. In vivo labeling (6 hours) of COS cells (3 ×10^5 cells per 35 mm diameter tissue culture dish) with […] was performed 3 days after transfection as described (Molecular Cloning Manual). Cells were washed in PBS and lysed in CHAPS lysis buffer (10 mM CHAPS-300 mM Nacl-50 mM Tris-HCl pH 7.4-2 mg/ml lodoacetamide-0.17 mg/ml PMSF), precleared by incubation with protein G Sepharose beads (50 µl packed beads per ml, Genex) and normal mouse serum (25% final concentration) at 4° C. overnight. […]
(§2) IL-12 receptor cDNA (clone number 5) (SEQ ID NO:1) was electroporated into COS cells and equilibrium binding of labeled human and murine IL-12 to the cells was performed and analyzed as described (R. Chizzonite, et al., 1992, J. Immunol., 148:3117). […] After transformation by the method of Scatchard, the equilibrium binding data was best described by a single receptor site model as determined by the LIGAND program. The site numbers indicated in FIG. 19 are calculated assuming that all cells are expressing receptors. […]

[2] = target: T1, Recombinant human low affinity IL-12 …; test: IL-12 binding to transfected COS cells; told in the discussion
[3] = target: T1, Recombinant human low affinity IL-12 …; test: IL-12 binding to intact transfected COS cells; told in the discussion
[4] = target: T1, Recombinant human low affinity IL-12 …; test: steady state binding of 125I-IL-12 to rIL-12R expressing COS cells, Scatchard (FIGS. 4A and 4B)
Method: The characteristics of the protein bound by mAb 2-4E6 fulfilled standard criterion for an IL-12R and therefore 2-4E6 was used in an expression cloning strategy to isolate a cDNA coding for the human IL-12R. A cDNA coding for the human IL-12R was isolated by this method (U. Gubler and A. O. Chua, unpublished observations). The IL-12R cDNA was engineered in a mammalian cell expression vector, transfected into COS-7 cells and the specificity for binding of ^125I-IL-12 and ^125I-2-4E6 was determined. […] This low affinity IL-12 binding site corresponds to the low affinity site seen in the binding assays with human cells that naturally express IL-12R. The binding of ^125I-2-4E6 to, rIL-12R expressed in the COS cells is saturable and specific and identifies approximately 500,000 sites/cell (FIGS. 4C and 4D).
For FIGS. 4A and 4B, COS cells were transfected with a plasmid expressing human rIL-12R as. described. Three days later, transfected cells (1×10^4 cells) were incubated for 2 hrs at room temperature with increasing concentration of ^125I-IL-12 in the absence (o) or presence (□) of 50 nM unlabeled IL-12. Total (o) and non-specific (□) cell bound radioactivity were determined as described. Specific binding of ^125I-IL-12 (▲) was calculated by subtracting non-specific binding from total binding.

[5] = target: Human IL-12 receptor subunit monomer (on murine CTLL transfectants, which only express monomers); monomer form … (human); test: IL-12 binding to murine CTLL transfectants stably expressing the IL-12 receptor subunit (monomers only)
[6] = target: T1, Recombinant human low affinity IL-12 …; test: equilibrium binding of labeled IL-12 to COS cells electroporated with clone number 5, Scatchard, single site (FIG. 19A)
Method: as §1, §2

Kd [1] [nM]	Kd [2] [nM]	Kd [3] [nM]	Kd [4] [nM]	Kd [5] [nM]	Kd [6] [nM]	Binder
2.1						Recombinant murine IL-12 (ligand) chain 1: MWELEKDVYVVEVDWTPDAPGETVNLTCDTPEEDDITWTSDQRHGVIGSGKTLTITVKEFLDAGQYTCHKGGETLSHSHLLLHKKENGIWSTEILKNFKNKTFLKCEAPNYSGRFTCSWLVQRNMDLKFNIKSSSSSPDSRAVTCGMASLSAEKVTLDQRDYEKYSVSCQEDVTCPTAEETLPIELALEARQQNKYENYSTSFFIRDIIKPDPPKNLQMKPLKNSQVEVSWEYPDSWSTPHSYFSLKFFVRIQRKKEKMKETEEGCNQKGAFLVEKTSTEVQCKGGNVCVQAQDRYYNSSCSKWACVPCRVRS chain 2: RVIPVSGPARCLSQSRNLLKTTDDMVKTAREKLKHYSCTAEDIDHEDITRDQTSTLKTCLPLELHKNESCLATRETSSTTRGSCLPPQKTSLMMTLCLGSIYEDLKMYQTEFQAINAALQNHNHQQIILDKGMLVAIDELMQSLNHNGETLRQKPPVGEADPYRVKMKLCILLHAFSTRVVTINRVMGYLSSA
	~3	2 to 5	2 to 6	≥ 50	3.4	Recombinant human IL-12 (Interleukin-12) (ligand) chain 1: IWELKKDVYVVELDWYPDAPGEMVVLTCDTPEEDGITWTLDQSSEVLGSGKTLTIQVKEFGDAGQYTCHKGGEVLSHSLLLLHKKEDGIWSTDILKDQKEPKNKTFLRCEAKNYSGRFTCWWLTTISTDLTFSVKSSRGSSDPQGVTCGAATLSAERVRGDNKEYEYSVECQEDSACPAAEESLPIEVMVDAVHKLKYENYTSSFFIRDIIKPDPPKNLQLKPLKNSRQVEVSWEYPDTWSTPHSYFSLTFCVQVQGKSKREKKDRVFTDKTSATVICRKNASISVRAQDRYYSSSWSEWASVPCS chain 2: RNLPVATPDPGMFPCLHHSQNLLRAVSNMLQKARQTLEFYPCTSEEIDHEDITKDKTSTVEACLPLELTKNESCLNSRETSFITNGSCLASRKTSFMMALCLSSIYEDLKMYQVEFKTMNAKLLMDPKRQIFLDQNMLAVIDELMQALNFNSETVPQKSSLEEPDFYKTKIKLCILLHAFRIRAVTIDRVMSYLNAS

— US5831007, “Human receptor for interleukin-12” (Hoffmann-La Roche Inc., dated 1998)
